In one test the target is T1, c-mpl receptor (Homo sapiens (Human), UniProt P40238 26-491, The MPL used for panning was biotinylated; the biotin site is not stated and is not carried by the letters.).
T1 construct: also called TPO receptor
T1 sequence: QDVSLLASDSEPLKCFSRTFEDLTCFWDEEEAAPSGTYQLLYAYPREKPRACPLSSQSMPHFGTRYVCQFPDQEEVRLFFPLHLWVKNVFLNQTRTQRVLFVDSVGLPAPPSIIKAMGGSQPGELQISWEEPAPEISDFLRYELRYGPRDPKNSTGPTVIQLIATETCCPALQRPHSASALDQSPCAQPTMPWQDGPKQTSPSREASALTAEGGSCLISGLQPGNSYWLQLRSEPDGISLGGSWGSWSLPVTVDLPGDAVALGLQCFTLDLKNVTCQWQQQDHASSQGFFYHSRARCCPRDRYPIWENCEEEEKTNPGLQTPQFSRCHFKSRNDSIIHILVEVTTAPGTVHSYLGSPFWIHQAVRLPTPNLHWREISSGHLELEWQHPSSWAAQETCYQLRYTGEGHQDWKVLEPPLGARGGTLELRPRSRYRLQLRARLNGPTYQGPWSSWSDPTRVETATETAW
The test is described as follows: phage-ELISA. (An ELISA detects its analyte on a solid surface through an enzyme-linked reagent.)

Test [1] deals with T2, human mpl receptor (human, UniProt P40238 26-635).
T2 sequence (looked up): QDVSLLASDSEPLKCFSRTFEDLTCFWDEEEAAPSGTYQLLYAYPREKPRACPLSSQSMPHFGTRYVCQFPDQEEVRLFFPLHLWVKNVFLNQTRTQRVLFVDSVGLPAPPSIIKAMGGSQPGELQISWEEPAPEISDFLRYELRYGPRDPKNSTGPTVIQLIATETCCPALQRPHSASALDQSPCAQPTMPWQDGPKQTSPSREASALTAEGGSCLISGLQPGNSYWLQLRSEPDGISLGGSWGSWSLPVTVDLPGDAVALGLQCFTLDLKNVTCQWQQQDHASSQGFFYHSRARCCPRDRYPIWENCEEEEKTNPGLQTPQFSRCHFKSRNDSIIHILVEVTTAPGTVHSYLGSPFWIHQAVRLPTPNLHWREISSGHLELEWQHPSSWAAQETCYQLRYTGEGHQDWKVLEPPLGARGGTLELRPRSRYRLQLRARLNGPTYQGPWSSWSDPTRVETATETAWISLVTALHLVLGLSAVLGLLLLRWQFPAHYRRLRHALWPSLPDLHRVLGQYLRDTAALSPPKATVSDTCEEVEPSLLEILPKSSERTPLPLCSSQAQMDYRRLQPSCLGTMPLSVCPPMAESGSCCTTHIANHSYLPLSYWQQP
The test can be described thus: cell-based or functional assay.

Test [2] concerns the target T2, human mpl receptor. The test is described as follows: cell-based or functional assay. The source holds these as a separate data set.

Where a chain is given by its changes, count along the chain named.

IEGPTLHEWLRWLRQHS [SEQ ID NO: 291]: the Relative activity with c-mpl receptor worked out at 78.3.

IEGWTRRQWLAARA [SEQ ID NO: 311] displayed a Relative activity with c-mpl receptor of 33.3.

On to IEGPTFKQWQRLRKNHS [SEQ ID NO: 329], for which, in the test with c-mpl receptor, the Relative activity was 12.1.

IEGPTLHEWLLYRRAHS [SEQ ID NO: 335] displayed a Relative activity in the test with c-mpl receptor of 73.7.

IEVWQSHWYQAARALESTSSRLLPMRPPPSICAQIEGPTLPQRMAARA [SEQ ID NO: 316] registered a Relative activity in the test with c-mpl receptor of 24.9.

IEGPTFKQWQLWRLQHS [SEQ ID NO: 327] displayed a Relative activity with c-mpl receptor of 12.6.

Molecule IEGPTFKQWQLMGFPHS [SEQ ID NO: 320] gave a Relative activity in the test with c-mpl receptor of 17.8.

In the test with c-mpl receptor, IEGWQEGRQSAARA [SEQ ID NO: 324] gave a Relative activity of 13.8.

Take IEGWTWQFYALPRGDHS [SEQ ID NO: 297]: in the test with c-mpl receptor, the Relative activity is 63.2.

In the case of IEGPTFKQWQAWRRWHS [SEQ ID NO: 315], the Relative activity with c-mpl receptor is 28.1.

For IEGWNPWRGAASRV [SEQ ID NO: 310], the Relative activity in the test with c-mpl receptor was determined as 33.9.

Consider IEGRHYQKWPARRLGHS [SEQ ID NO: 302], for which, in the test with c-mpl receptor, the Relative activity was 52.

With IEGPTLHEWLAQRREHS [SEQ ID NO: 334], in the test with c-mpl receptor, the Relative activity was 75.9.

The molecule IEGWVWWPWLAARA [SEQ ID NO: 296] showed a Relative activity in the test with c-mpl receptor of 63.5.

IEGWVWRQWLAARA [SEQ ID NO: 301]: the Relative activity with c-mpl receptor was found to be 52.1.

IEGFVGTVDWRQGRPHS [SEQ ID NO: 303] had a Relative activity with c-mpl receptor of 49.8.

Molecule IEGEALVFWWAARA [SEQ ID NO: 307] came in with a Relative activity with c-mpl receptor of 40.3.

In turn, IEGLLSQLWQAARA [SEQ ID NO: 330] displayed a Relative activity with c-mpl receptor of 7.11.

IEGMVKLGVIRLLVL [SEQ ID NO: 314] displayed a Relative activity with c-mpl receptor of 28.3.

B1: Fc-Loop (Sym) (SEQ ID NO: 9) (Fc fusion)
chain: MDKTHTCPPCPAPELLGGPSVFLFPPKPKDTLMISRTPEVTCVVVDVSHEDPEVKFNWYVDGVEVHNAKTKPREEQYNSTYRVVSVLTVLHQDWLNGKEYKCKVSNKALPAPIEKTISKAKGQPREPQVYTLPPSRDELGGQGCSSGGPTLREWQQCRRMQHSGGTKNQVSLTCLVKGFYPSDIAVEWESNGQPENNYKTTPPVLDSDGSFFLYSKLTVDKSRWQQGNVFSCSVMHEALHNHYTQKSLSLSPGK
In the case of B1, the “In vitro EC50” value with human mpl receptor [1] is 13.7 pM. In the test with human mpl receptor [2], the “EC50 on 32Dc123/Mpl” value came to 15 pM.

B2: Fc-Loop (Sym)(SEQ ID NO: 244) (Fc fusion)
chain: B1 chain with M160A
In the case of B2, the “EC50 on 32Dc123/Mpl” value with human mpl receptor [2] worked out at 12 pM.

In turn, IEGYWWYASWAARA [SEQ ID NO: 288] displayed a Relative activity in the test with c-mpl receptor of 80.4.

The molecule IEGPTFKQWQKLRLGHS [SEQ ID NO: 319] yielded a Relative activity in the test with c-mpl receptor of 17.9.

The molecule IEGSYRERQQAARA [SEQ ID NO: 308] returned a Relative activity with c-mpl receptor of 35.2.

In the test with c-mpl receptor, IEGPTFKQWQKWRLSHS [SEQ ID NO: 323] gave a Relative activity of 14.7.

Take IEGPSLPEWLHVWRHHS [SEQ ID NO: 331]: the Relative activity in the test with c-mpl receptor amounted to 117.

As for IEGWIWRQWLMQTLWHS [SEQ ID NO: 321], the Relative activity with c-mpl receptor was determined as 16.4.

B3: Fc-Loop (Asym) (SEQ ID NO: 9) (Fc fusion)
chain: MDKTHTCPPCPAPELLGGPSVFLFPPKPKDTLMISRTPEVTCVVVDVSHEDPEVKFNWYVDGVEVHNAKTKPREEQYNSTYRVVSVLTVLHQDWLNGKEYKCKVSNKALPAPIEKTISKAKGQPREPQVYTLPPSRDELGGGGQGCSSGGPTLREWQQCRRMQHSGGTKNQVSLTCLVKGFYPSDIAVEWESNGQPENNYKTTPPVLDSDGSFFLYSKLTVDKSRWQQGNVFSCSVMHEALHNHYTQKSLSLSPGK
Regarding B3, the “In vitro EC50” value in the test with human mpl receptor [1] amounted to 12.7 pM. The “EC50 on 32Dc123/Mpl” value with human mpl receptor [2] worked out at 13 pM.

B4: Fc-Loop (Asym) (SEQ ID NO: 243) (Fc fusion)
chain: B3 chain with R160V
In the case of B4, in the test with human mpl receptor [1], the “In vitro EC50” value came out at 5.7 pM. Besides, the “EC50 on 32Dc123/Mpl” value in the test with human mpl receptor [2] came to 6 pM.

In the test with c-mpl receptor, IEGEIWAGPGAARA [SEQ ID NO: 306] yielded a Relative activity of 46.5.

IEGPTFKQWQRWLKYHS [SEQ ID NO: 325] gave a Relative activity with c-mpl receptor of 13.5.

Consider IEGPTFKQWQALRKRHS [SEQ ID NO: 318], for which, in the test with c-mpl receptor, the Relative activity is 21.6.

On to IEGPTLHEWLRQRRQHS [SEQ ID NO: 336], for which the Relative activity with c-mpl receptor amounted to 64.5.

Turning to IEGQEPTRLRLQMDRHS [SEQ ID NO: 304], the Relative activity with c-mpl receptor was determined as 48.3.

Take IEGPTFKQWQAMRKNHS [SEQ ID NO: 322]: the Relative activity in the test with c-mpl receptor was found to be 16.4.

The molecule IEGPTLHEWLAERRKHS [SEQ ID NO: 332] showed a Relative activity with c-mpl receptor of 88.4.

For the molecule IEGPTLHEWLALLRSHS [SEQ ID NO: 333], the Relative activity in the test with c-mpl receptor was determined as 80.7.

B5: SEQ ID NO: 326 (peptide)
peptide: IEGNYWFWQQVGQENTLSREWIQTLGQKYWYRPPSICAQIEGWSRHQHYSAMSGHS
The molecule B5 showed a Relative activity in the test with c-mpl receptor of 13.2.

In the test with c-mpl receptor, IEGPTFKQWQAMRRHS [SEQ ID NO: 313] yielded a Relative activity of 28.4.

Consider IAQVRMLGRFTLLVLSRARAASTQLSFQHSICAQIEGGAQTQWDAARA [SEQ ID NO: 305], for which the Relative activity in the test with c-mpl receptor came out at 47.4.

With IEGEALVFWWRVRGGHS [SEQ ID NO: 294], the Relative activity with c-mpl receptor was determined as 73.9.

The record behind these values is patent US20110275122A1 (Amgen, published 2011).
